Data on 5 molecules can be found in patent US20150239980A1 (NEOTOPE BOSCIENCES, published 2015).

The target in test [1] is T1, recombinant hMCAM-His (human, UniProt P43121 24-559).
T1 construct: not shown: His tag
T1 chain: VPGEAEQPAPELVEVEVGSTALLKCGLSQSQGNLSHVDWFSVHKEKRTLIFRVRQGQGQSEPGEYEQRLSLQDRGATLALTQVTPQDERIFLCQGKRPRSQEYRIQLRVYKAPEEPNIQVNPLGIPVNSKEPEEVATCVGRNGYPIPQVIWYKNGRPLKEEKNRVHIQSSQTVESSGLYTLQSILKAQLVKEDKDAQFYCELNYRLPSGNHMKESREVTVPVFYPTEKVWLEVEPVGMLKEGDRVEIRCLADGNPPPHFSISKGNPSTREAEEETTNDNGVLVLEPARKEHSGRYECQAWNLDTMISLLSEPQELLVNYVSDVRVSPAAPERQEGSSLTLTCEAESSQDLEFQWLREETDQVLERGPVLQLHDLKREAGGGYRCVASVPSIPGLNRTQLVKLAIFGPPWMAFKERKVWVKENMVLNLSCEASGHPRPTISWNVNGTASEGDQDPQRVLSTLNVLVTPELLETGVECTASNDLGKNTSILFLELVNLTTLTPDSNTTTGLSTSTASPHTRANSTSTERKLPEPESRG
In words: ForteBio Octet Red, hMCAM-His analyte; Expt. #2; vs rodent 1749. The method, then: (§1) The affinities were measured using the ForteBio Octet Red. Anti-human Fc sensors were used to capture the humanized antibodies, and several concentrations of hMCAMHis analyte were used to determine the affinity using a 1:1 fitting model.
(In general: BLI is a label-free optical method that tracks binding on a fibre tip over time.)

Test [2] has as its target T1, recombinant hMCAM-His. Kind of test: ForteBio Octet Red, hMCAM-His analyte; Forte column 1; vs rodent 1749. The method, then: as §1
In test [3] the target is T2, human MCAM (melanoma cell adhesion molecule) expressed on transfected CHO cells (human, UniProt P43121 24-646).
T2 construct: also called hMCAM; CD146
T2 chain: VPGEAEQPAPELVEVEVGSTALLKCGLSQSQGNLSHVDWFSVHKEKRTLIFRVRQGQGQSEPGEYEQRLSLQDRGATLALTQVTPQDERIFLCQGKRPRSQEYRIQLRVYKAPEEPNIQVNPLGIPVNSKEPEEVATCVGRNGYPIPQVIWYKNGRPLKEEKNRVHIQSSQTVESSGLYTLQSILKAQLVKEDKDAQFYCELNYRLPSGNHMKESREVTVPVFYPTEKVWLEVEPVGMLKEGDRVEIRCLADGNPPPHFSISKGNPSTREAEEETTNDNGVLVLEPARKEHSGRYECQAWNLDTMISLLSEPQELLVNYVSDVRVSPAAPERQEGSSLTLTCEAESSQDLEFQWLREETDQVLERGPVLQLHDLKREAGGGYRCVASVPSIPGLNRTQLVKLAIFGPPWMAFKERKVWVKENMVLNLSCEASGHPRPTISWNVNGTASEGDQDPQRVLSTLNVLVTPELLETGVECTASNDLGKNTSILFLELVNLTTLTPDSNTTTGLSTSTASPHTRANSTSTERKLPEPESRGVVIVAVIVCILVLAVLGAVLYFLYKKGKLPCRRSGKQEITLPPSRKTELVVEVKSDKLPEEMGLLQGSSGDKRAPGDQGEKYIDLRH
Kind of test: laminin/FACS on hMCAM CHO cells, competitor laminin 411; Expt#2; vs rodent 1749. Here is the method: (§2) Following incubation for 30-45 minutes, the cells were washed and anti-laminin conjugated to AF650 (NovusBio) was added to detect the bound laminin. The cells were run on a flow cytometer to measure the laminin binding signal.

Test [4] deals with T1, recombinant hMCAM-His. In words: competitive ELISA on hMCAM-His, competitor biotinylated rodent or chimeric 1749; Expt. #1; vs rodent 1749. The method, then: (§3) ELISA plates were coated with recombinant hMCAM-His, and blocked with casein buffer to prevent non-specific binding. Biotinylated rodent or chimeric antibody was added at a subsaturating concentration, in the presence or absence of 3× increasing concentrations of unlabeled competitor (humanized antibody, rodent, or chimeric). After washing to remove unbound antibody, streptavidin HRP was added to allow detection of the biotinylated antibody. The ELISA was developed with TMB substrate and the OD450 was measured. The IC50 of the unlabeled competitor was determined using the GraphPad Prism5 software.
A general note: An ELISA detects its analyte on a solid surface through an enzyme-linked reagent.

The target in test [5] is T2, human MCAM (melanoma cell adhesion …). In words: laminin/FACS blocking assay, % inhibition of laminin 411 binding to hMCAM-expressing CHO cells against antibody concentration; blocked ligand: laminin 411. Here is the method:
as §2

Test [6] addresses T1, recombinant hMCAM-His. Kind of test: competitive ELISA on hMCAM-His, competitor biotinylated rodent or chimeric 1749; Expt. #2; vs rodent 1749. Here is the method:
as §3

In test [7] the target is T2, human MCAM (melanoma cell adhesion …). In words: laminin/FACS on hMCAM CHO cells, competitor laminin 411; Expt#1; vs rodent 1749. Here is the method: as §2
The target is the same in test [8]. In words: flow cytometry, human MCAM CHO cells preincubated with antibody, competitor recombinant human laminin 411 at 20 ug/ml. The method, then: The 87 independent mouse fusion clones and 26 independent rat fusion clones described in Example 10 above as being capable of (i) binding to human MCAM, and (ii) blocking the interaction between human MCAM and the α-4 chain of laminin were further characterized as follows. First, IC50 quantitation for the ability of the monoclonal antibody to block the binding of human MCAM to the α-4 chain of laminin was determined as follows. CHO cells expressing human MCAM were incubated with an anti-human MCAM antibody (at various concentrations) for 30 minutes at 4 degrees Celsius. […] Unbound laminin was then washed away, and the laminin bound to the surface of the cells was detected with fluorescently labeled anti-laminin antibodies. After washing, the amount of laminin bound to the surface was detected by flow cytometry, and IC50s were calculated based on the mean fluorescent intensity.
These six anti-MCAM monoclonal antibody clones are herein referred to as (i) the mouse anti-human MCAM monoclonal clones 1174.1.3, 1414.1.2, 1415.1.1, and 1749.1.3, and (ii) the rat anti-human MCAM monoclonal antibody clones 2120.4.19 and 2107.4.10. […] As such, each of these specific monoclonal antibodies was very capable of binding to human MCAM and inhibiting the interaction of cell-expressed human MCAM with its α-4 laminin binding ligand.
Background: Flow cytometry measures light scatter and fluorescence of single cells or particles in a stream.

In test [9] the target is T3, human MCAM domain 3 (amino acids 244-321), Fc-tagged (human, UniProt P43121 244-321).
T3 construct: also called domain 3 of the human MCAM protein
T3 sequence: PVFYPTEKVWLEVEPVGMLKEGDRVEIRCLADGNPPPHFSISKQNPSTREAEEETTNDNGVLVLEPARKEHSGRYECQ
Kind of test: ForteBio domain mapping as in Example 8.

For test [10], the target named is T4, human MCAM domain 1 (amino acids 19-129), Fc-tagged (human, UniProt P43121 19-129).
T4 construct: also called MCAM Fc domain 1
T4 sequence: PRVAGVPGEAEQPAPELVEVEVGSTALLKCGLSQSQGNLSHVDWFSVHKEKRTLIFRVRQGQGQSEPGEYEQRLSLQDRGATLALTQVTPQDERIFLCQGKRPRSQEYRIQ
In words: ForteBio domain mapping as in Example 8.

The target of test [11] is T5, human MCAM domain 2 (amino acids 139-242), Fc-tagged (human, UniProt P43121 139-242).
T5 sequence: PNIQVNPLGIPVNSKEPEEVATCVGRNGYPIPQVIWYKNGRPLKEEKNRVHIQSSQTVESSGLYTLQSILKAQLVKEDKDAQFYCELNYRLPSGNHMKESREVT
In words: ForteBio domain mapping as in Example 8.

In test [12] the target is T6, Recombinant human Fc-tagged MCAM IgG1-2A (human MCAM domains 1 and 2, amino acids 19-242) (human, UniProt P43121 19-242).
T6 construct: also called human MCAM IgG1-2A; MCAM Fc domains 1 and 2; not shown: human Fc tag
T6 sequence: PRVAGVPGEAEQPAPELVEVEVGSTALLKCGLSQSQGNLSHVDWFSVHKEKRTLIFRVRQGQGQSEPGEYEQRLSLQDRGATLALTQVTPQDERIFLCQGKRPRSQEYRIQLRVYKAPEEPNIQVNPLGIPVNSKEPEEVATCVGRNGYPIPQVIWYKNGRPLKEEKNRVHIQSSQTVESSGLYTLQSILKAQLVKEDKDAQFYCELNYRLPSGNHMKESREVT
Kind of test: ForteBio domain mapping as in Example 8.

Test [13] deals with T1, recombinant hMCAM-His. Kind of test: summary of ForteBio and competitive ELISA on hMCAM-His; vs rodent 2107. Here is the method:
as §3, §1

The target in test [14] is T2, human MCAM (melanoma cell adhesion …). Kind of test: summary of laminin blocking assay on hMCAM CHO cells, competitor laminin 411; vs rodent 2107. Here is the method: as §2
Test [15] has as its target T1, recombinant hMCAM-His. In words: competitive ELISA on hMCAM-His, competitor biotinylated rodent or chimeric 2107; Expt. #1; vs rodent 2107. Here is the method: as §3
The target of test [16] is T1, recombinant hMCAM-His. Kind of test: ForteBio Octet Red, hMCAM-His analyte; Expt. #1; vs rodent 2107. The method, then:
as §1

B1: chimeric 1749 (antibody, V domains shown)
VH: DVKLVESGGDLVKPGGSLKLSCAASGFTFSSYIMSWVRQTPEKRLEWVATISSGGSSTYYPDSVKGRFTISRDNAKNTLYLQMSSLKSEDTAMYYCTRDDDYDVKVFAYWGQGTLVTVSA
VL: DIVMSQSPSSLAVSAGEKVTMNCKSSRSLLNSRIRKNYLAWYQQKPGQSPKLLIYWASTRESGVPDRFTGSGSGTDFTLTISSVQAEDLAVYYCKQSYNLLTFGAGTKLELK
With B1, the “fold over rodent (Forte affinity)” value amounted to 0.79 fold with recombinant hMCAM-His [1] and 0.6 fold with recombinant hMCAM-His [2]. In addition, the “fold over rodent (blocking, laminin/FACS)” value in [3] and in [7] was 1.4 fold in each case. Besides, the “fold over rodent (competitive ELISA)” value in the test with recombinant hMCAM-His [4] is 0.81 fold; in the test with recombinant hMCAM-His [6] it was 0.97 fold. In addition, the “IC50 (read off the curve)” value in test [5] is roughly 0.5 µg/mL.

B2: mouse anti-human MCAM monoclonal antibody clone 1414.1.2 (antibody, V domains shown)
VH: EIQLQQTGPELVKPGASVKISCKASGYSFTDYIMLWVKQSHGKSLEWIGNINPYSGSSGYNLKFKGKATLTVDKSSSTAYMQLNSLTSEDSAVYYCARGKDFAMDYWGQGTSVTVSS
VL: DIVMSQSPSSLAVSAGEKVTMSCKSSQSLLNSSTRKNFLAWYQQKPGQSPKLLIYWASTRESGVPDRFTGSGSGTDFTLTISSVQAEDLAVYYCKQSYNRYTFGGGTKLEIK
notes: mouse hybridoma antibody
Consider B2, for which, in [8], the 50% inhibitory concentration (IC50) (in general, the concentration needed to halve the response being measured) was determined as 0.431 µg/mL. Also, the binding result is listed as “binds” in test [9], “no binding” in test [10], “no binding” in test [11] and “no binding” in [12].

B3: h2107_VH3 + h2107_VL2 (antibody, human IgG1, V domains shown)
VH: QVTLKESGPVLVKPTETLTLTCTVSGFSLTSNGVSWVRQPPGKALEWIAAISSGGSTYYNSAFKSRLTISRNTSKSQVVLTMTNMDPVDTATYYCARHRPFYFDYWGQGTLVTVSS
VL: DIQMTQSPSSLSASVGDRVTITCKGSQNIYKSLAWFQLKPGKVPKLLIYDANSLQTGIPSRFSGSGSGTDFTLTISSLQPEDVATYYCQQYYSGYTFGGGTKVEIK
notes: also called VH3VL2
In the case of B3, the “fold reduction in affinity compared to the rodent” value in the test with recombinant hMCAM-His [13] was less than 3 fold. The “fold reduction in potency compared to the rodent” value in [14] was less than 3 fold. The “fold over rodent (competitive ELISA)” value with recombinant hMCAM-His [15] was determined as 1.62 fold. In the test with recombinant hMCAM-His [16], the “fold over rodent (Forte affinity)” value was 2.54 fold.

B4: mouse anti-human MCAM monoclonal antibody clone 1174.1.3 (antibody, V domains shown)
VH: QIQLVQSGPELKKPGETVKISCKASGYTFTNYGMNWVKQAPGKGLKWMGWINTYTGEPTYADDFKGRFALSLETSASTAYLQINNLKNEDMATYFCARYRYNKYERAMDYWGQGTSVTVSS
VL: DIVLTQSPASLAVSLGQRATISCRASKSVSTSGYSYMYWYQQKPGQPPKLLIYLASNLESGVPARFSGSGSGTDFTLNIHPVEEEDAATYYCQHSRELPFTFGSGTKLEIK
notes: mouse hybridoma antibody
For the molecule B4, the IC50 in test [8] came to 0.469 µg/mL. Besides, the binding result in [9] is “binds”; in [10] it was “no binding”; in test [11], “no binding”; in [12] it was “no binding”.

B5: mouse anti-human MCAM monoclonal antibody clone 1415.1.1 (antibody, V domains shown)
VH: QVQLQQPGAELVQPGAPVKLSCKASGYIFTSYWMNWVKQRPGRGLEWIGRIDPSDSKIHYNQKFKDKATLTVDRSSSTAYIQLGSLTSEDSAVYYCAKEGGLRRGDYAMDYWGQGTSVTVSS
VL: DIVMTQSPATLSVTPGDRVSLSCRASQSISDYLHWYQQKSHESPRLLIKYASQSISGIPSRFSGSGSGSDFTLSINSVEPEDVGVYYCQNGHNFPRTFGGGTKLEIK
notes: mouse hybridoma antibody
Consider B5, for which the IC50 in [8] came out at 0.307 µg/mL. The binding result in test [9] is listed as “binds”; in test [10], “no binding”; in [11], “no binding”; in test [12], “no binding”.
